According to PMC9482650, “Quantitative fragmentomics allow affinity mapping of interactomes” (Nature Communications, 2022):

Legend:
Experiment in all cases: holdup assay
Design in all cases: key: below the threshold = too weak to quantify, mostly under pKd 3.1 to 4
[1] = molecular target: DLG1_1, Q12959
[2] = molecular target: PDZRN4_1, Q6ZMN7
[3] = molecular target: Inadl_10, Q8NI35
[4] = molecular target: GIPC2, Q8TF65
[5] = molecular target: Inadl_8, Q8NI35
[6] = molecular target: DLG1_2, Q12959
[7] = molecular target: T1, LIN7B, Q9HAP6
T1 sequence (Q9HAP6 88-185, limits assumed, looked up): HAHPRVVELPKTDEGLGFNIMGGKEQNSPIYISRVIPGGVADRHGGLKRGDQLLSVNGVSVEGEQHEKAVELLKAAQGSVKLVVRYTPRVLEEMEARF

[8] = molecular target: T2, RADIL, Q96JH8
T2 sequence (Q96JH8 971-1071, limits assumed, looked up): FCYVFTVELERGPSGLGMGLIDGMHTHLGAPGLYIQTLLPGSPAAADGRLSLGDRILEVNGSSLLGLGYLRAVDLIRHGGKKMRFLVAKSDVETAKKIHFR

[9] = molecular target: DLG5_1, Q8TDM6
[10] = molecular target: Inadl_2, Q8NI35
[11] = molecular target: LDB3, O75112
[12] = molecular target: T3, NHERF3_1, Q5T2W1
T3 sequence (Q5T2W1 4-100, limits assumed, looked up): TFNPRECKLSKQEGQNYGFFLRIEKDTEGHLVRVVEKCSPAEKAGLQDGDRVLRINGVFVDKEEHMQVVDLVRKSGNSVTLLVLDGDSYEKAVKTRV

[13] = molecular target: GRID2IP_1, A4D2P6
[14] = molecular target: T4, RHPN1, Q8TCX5
T4 sequence (Q8TCX5 508-602, limits assumed, looked up): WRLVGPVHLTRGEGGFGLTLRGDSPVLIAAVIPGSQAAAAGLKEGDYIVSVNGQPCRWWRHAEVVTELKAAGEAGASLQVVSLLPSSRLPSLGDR

[15] = molecular target: DLG2_2, Q15700
[16] = molecular target: GRASP, Q7Z6J2
[17] = molecular target: T5, TIAM2, Q8IVF5
T5 sequence (Q8IVF5 885-986, limits assumed, looked up): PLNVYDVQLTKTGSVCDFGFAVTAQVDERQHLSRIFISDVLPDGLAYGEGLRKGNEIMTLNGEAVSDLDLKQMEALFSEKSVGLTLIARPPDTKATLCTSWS

[18] = molecular target: Inadl_6, Q8NI35
[19] = molecular target: PDLIM1, O00151
[20] = molecular target: T6, APBA2_2, Q99767
T6 sequence (Q99767 654-744, limits assumed, looked up): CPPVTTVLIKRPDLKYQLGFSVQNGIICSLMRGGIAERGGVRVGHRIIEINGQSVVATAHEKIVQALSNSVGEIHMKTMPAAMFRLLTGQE

[21] = molecular target: ARHGEF12, Q9NZN5-2
[22] = molecular target: NHERF4_1, Q86UT5-2
[23] = molecular target: MAGI2_2, Q86UL8
[24] = molecular target: T7, DFNB31_3, Q9P202
T7 sequence (Q9P202 811-907, limits assumed, looked up): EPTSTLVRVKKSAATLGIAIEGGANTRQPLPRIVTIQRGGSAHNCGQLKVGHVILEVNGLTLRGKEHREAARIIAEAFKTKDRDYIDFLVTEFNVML

[25] = molecular target: T8, MPP2, Q14168
T8 sequence (Q14168 180-250, limits assumed, looked up): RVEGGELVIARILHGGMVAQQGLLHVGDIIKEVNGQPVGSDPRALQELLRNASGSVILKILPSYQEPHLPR

[26] = molecular target: T9, NHERF3_3, Q5T2W1
T9 sequence (Q5T2W1 238-333, limits assumed, looked up): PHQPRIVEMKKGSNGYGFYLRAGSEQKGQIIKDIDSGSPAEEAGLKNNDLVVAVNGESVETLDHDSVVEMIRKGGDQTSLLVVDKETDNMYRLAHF

[27] = molecular target: T10, ARHGAP21, Q5T5U3
T10 sequence (Q5T5U3 45-169, limits assumed, looked up): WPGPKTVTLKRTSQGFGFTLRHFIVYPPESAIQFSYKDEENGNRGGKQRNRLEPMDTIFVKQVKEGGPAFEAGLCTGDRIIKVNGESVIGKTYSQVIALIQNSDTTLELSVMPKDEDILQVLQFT

[28] = plain residues with an end cap or a label only (N-terminal biotin on a linker: ttds)
[29] = plain residues with an end cap or a label only (N-terminal biotin on a linker: ahx)

Chain of GRID2IP_1, A4D2P6 (A4D2P6 1-87): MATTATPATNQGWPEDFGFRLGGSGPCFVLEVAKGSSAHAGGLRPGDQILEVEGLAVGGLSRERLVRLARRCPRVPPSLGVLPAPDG
Chain of PDZRN4_1, Q6ZMN7 (Q6ZMN7 213-318): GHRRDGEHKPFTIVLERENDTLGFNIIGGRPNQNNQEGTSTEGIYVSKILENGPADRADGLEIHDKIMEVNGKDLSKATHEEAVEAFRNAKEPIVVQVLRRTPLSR
Chain of MAGI2_2, Q86UL8 (Q86UL8 410-522): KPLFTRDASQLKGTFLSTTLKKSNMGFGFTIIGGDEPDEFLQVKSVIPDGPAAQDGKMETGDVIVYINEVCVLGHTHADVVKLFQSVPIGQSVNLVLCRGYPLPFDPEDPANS
Chain of PDLIM1, O00151 (O00151 1-87): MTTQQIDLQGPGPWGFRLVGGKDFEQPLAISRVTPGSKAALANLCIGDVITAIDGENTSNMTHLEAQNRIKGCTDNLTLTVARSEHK
Chain of GIPC2, Q8TF65 (Q8TF65 112-203): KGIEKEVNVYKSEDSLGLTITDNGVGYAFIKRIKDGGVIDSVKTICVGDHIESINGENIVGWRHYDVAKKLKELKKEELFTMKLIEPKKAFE
Chain of Inadl_10, Q8NI35 (Q8NI35 1673-1763): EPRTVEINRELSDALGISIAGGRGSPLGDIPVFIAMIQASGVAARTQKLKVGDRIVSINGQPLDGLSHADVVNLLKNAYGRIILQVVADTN
Chain of LDB3, O75112 (O75112 1-94): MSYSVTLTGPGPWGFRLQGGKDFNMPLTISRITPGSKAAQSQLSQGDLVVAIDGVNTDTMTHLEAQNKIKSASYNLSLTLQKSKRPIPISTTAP
Chain of Inadl_6, Q8NI35 (Q8NI35 1058-1167): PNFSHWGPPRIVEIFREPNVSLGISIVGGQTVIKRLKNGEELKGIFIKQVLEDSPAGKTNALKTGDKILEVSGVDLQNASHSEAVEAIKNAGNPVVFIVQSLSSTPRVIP
Chain of GRASP, Q7Z6J2 (Q7Z6J2 96-193): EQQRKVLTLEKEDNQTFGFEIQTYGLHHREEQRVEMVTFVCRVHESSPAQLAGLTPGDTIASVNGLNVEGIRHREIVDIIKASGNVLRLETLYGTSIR
Chain of DLG5_1, Q8TDM6 (Q8TDM6 617-713): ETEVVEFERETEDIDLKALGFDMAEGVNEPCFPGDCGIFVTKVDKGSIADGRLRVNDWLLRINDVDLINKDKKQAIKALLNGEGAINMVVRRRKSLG
Chain of DLG2_2, Q15700 (Q15700 189-283): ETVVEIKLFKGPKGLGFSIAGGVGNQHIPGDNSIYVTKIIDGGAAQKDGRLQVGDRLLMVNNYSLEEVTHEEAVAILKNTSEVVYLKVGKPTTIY
Chain of Inadl_2, Q8NI35 (Q8NI35 238-335): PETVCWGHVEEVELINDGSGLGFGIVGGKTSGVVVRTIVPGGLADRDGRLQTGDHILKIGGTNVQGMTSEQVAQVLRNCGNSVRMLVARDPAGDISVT
Chain of Inadl_8, Q8NI35 (Q8NI35 1425-1530): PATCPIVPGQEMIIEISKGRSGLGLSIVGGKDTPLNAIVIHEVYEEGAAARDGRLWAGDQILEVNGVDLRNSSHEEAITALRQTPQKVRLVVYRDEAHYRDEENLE
Chain of ARHGEF12, Q9NZN5-2 (Q9NZN5 other isoform, or with tags, fused parts or gaps): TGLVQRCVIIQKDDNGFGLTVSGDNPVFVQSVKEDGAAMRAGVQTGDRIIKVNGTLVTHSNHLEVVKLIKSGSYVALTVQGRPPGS
Chain of NHERF4_1, Q86UT5-2 (Q86UT5 other isoform, or with tags, fused parts or gaps): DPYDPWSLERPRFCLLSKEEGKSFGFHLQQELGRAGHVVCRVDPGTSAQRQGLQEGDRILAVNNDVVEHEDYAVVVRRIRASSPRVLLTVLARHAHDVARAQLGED

B1: MAS1, P04201 (peptide)
chain: CNTVTVETVV
- pKd [1, 28]: 4.06
- pKd [2, 28]: below the threshold
- pKd [3, 28]: below the threshold
- pKd [4, 28]: below the threshold
- pKd [5, 28]: below the threshold
- pKd [6, 28]: 4.29
- pKd [7, 28]: below the threshold
- pKd [8, 28]: 3.63
- pKd [9, 28]: below the threshold
- pKd [10, 28]: below the threshold
- pKd [11, 28]: below the threshold
- pKd [12, 28]: 3.74
- pKd [13, 28]: below the threshold
- pKd [14, 28]: 4.09
- pKd [15, 28]: 4.19
- pKd [16, 28]: below the threshold
- pKd [17, 28]: below the threshold
- pKd [18, 28]: below the threshold
- pKd [19, 28]: below the threshold
- pKd [20, 28]: below the threshold
- pKd [21, 28]: below the threshold
- pKd [22, 28]: below the threshold
- pKd [23, 28]: below the threshold
- pKd [24, 28]: below the threshold
- pKd [25, 28]: below the threshold
- pKd [26, 28]: 3.54
- pKd [27, 28]: below the threshold

B2: MAP2K2, P36507 (peptide)
chain: QPGTPTRTAV
- pKd [1, 28]: 3.53
- pKd [2, 28]: below the threshold
- pKd [3, 28]: below the threshold
- pKd [4, 28]: below the threshold
- pKd [5, 28]: 3.78
- pKd [6, 28]: 3.99
- pKd [7, 28]: below the threshold
- pKd [8, 28]: 3.54
- pKd [9, 28]: below the threshold
- pKd [10, 28]: below the threshold
- pKd [11, 28]: below the threshold
- pKd [12, 28]: below the threshold
- pKd [13, 28]: below the threshold
- pKd [14, 28]: below the threshold
- pKd [15, 28]: 3.87
- pKd [16, 28]: 4.56
- pKd [17, 28]: below the threshold
- pKd [18, 28]: below the threshold
- pKd [19, 28]: 3.47
- pKd [20, 28]: below the threshold
- pKd [21, 28]: 3.66
- pKd [22, 28]: 3.52
- pKd [23, 28]: 3.64
- pKd [24, 28]: below the threshold
- pKd [25, 28]: below the threshold
- pKd [26, 28]: below the threshold
- pKd [27, 28]: below the threshold

B3: NRXN1, Q9ULB1 (peptide)
chain: KKNKDKEYYV
- pKd [1, 29]: below the threshold
- pKd [2, 29]: below the threshold
- pKd [3, 29]: below the threshold
- pKd [4, 29]: below the threshold
- pKd [5, 29]: below the threshold
- pKd [6, 29]: below the threshold
- pKd [7, 29]: below the threshold
- pKd [8, 29]: 4.2
- pKd [9, 29]: below the threshold
- pKd [10, 29]: 4.55
- pKd [11, 29]: below the threshold
- pKd [12, 29]: 3.84
- pKd [13, 29]: below the threshold
- pKd [14, 29]: below the threshold
- pKd [15, 29]: below the threshold
- pKd [16, 29]: below the threshold
- pKd [17, 29]: 4.11
- pKd [18, 29]: below the threshold
- pKd [19, 29]: below the threshold
- pKd [20, 29]: below the threshold
- pKd [21, 29]: below the threshold
- pKd [22, 29]: below the threshold
- pKd [23, 29]: 3.67
- pKd [24, 29]: below the threshold
- pKd [25, 29]: 3.69
- pKd [26, 29]: below the threshold
- pKd [27, 29]: below the threshold

B4: RPS6KA1, Q15418 (peptide)
chain: RRVRKLPSTTL
- pKd [1, 28]: below the threshold
- pKd [2, 28]: 4.13
- pKd [3, 28]: below the threshold
- pKd [4, 28]: below the threshold
- pKd [5, 28]: below the threshold
- pKd [6, 28]: 3.7
- pKd [7, 28]: below the threshold
- pKd [8, 28]: 3.54
- pKd [9, 28]: below the threshold
- pKd [10, 28]: below the threshold
- pKd [11, 28]: below the threshold
- pKd [12, 28]: 4.03
- pKd [13, 28]: below the threshold
- pKd [14, 28]: 4.26
- pKd [15, 28]: below the threshold
- pKd [16, 28]: 4.17
- pKd [17, 28]: 3.5
- pKd [18, 28]: below the threshold
- pKd [19, 28]: 3.49
- pKd [20, 28]: below the threshold
- pKd [21, 28]: 5.45
- pKd [22, 28]: 3.57
- pKd [23, 28]: 4.4
- pKd [24, 28]: 4.14
- pKd [25, 28]: below the threshold
- pKd [26, 28]: 3.61
- pKd [27, 28]: below the threshold
